Data: paper PMC2879707 (2011)

Target: F-actin (skeletal muscle actin) (Oryctolagus cuniculus, UniProt P68135)
Experiment: high-speed co-sedimentation

- Kd: 940 nM
B1: TRIOBP-4 isoform 4 (protein)
chain: MSMEQDTRALLPTQGTAWATASAPVARLQGPQGDSHQACSQEPHSPSSAEAPYCDLPRCPPALQNPLRTTTCVGQSVHSLGLGLGQEPQRVWSPTTALPAEGPAAAPKNRHQDSEGIPYLEGLARSSCTDDNDNKDEDEDPNSNTSSSQDSNTPHDTSNSSSVDWDTTERPGVVPSRNRLTEMIPRRPQEGLRADSARKATRSPARGDTAGQRKENSGSGGQSAGQHWAKLRSESGYFSLERQRSGQTQASSGTPPSGPRGTTQASSAQRDVFQAAPAQEAPQTSSLPRNTQRDTQRSTPRTSSPSRVSQRDTPRVMSTQRKNTPLSSPLRATPETLKISAPEDGTHVTPSPCVQDSSLNRTSQRDSSRTPCIQWDNPRASSPNRTTQRDNPRTPCTQRDNPRASSPNRTTQRDNPRTPCTQRDNPRASSPNRTTQRDNPRTPCAQRDNPRAASPNRSTQRDSPRTPCAQRDNPRASSPNRTAQRDNPRTPCAQRDNPRTSCTSQNTPRTPSTQADKTTASCSKWEHLRSACTQRDNPRTFSQGCTQKDNPGPPSPRRATQGSNSRNPSPHRTNKDIPWASFPLRPTQSDSPRTSSPSRTKQNQVPWASISLRPTQGDKPQTSAPTRLAHNDPPQQYSPSLATTSSSSHNPGHSSASRTSSPLHAAPRGAPQTSLESSQPPCTVCIGHRDAPRASSPPRYFQYDPFPFFPDPRSSESESPHHEPPYMPPAVCIGHRDAPRATSPPRHTQFDPFPFLPDTSDADNESPQHDPPQFPPPVCIGYRDAPRASSPPRQFPEPSFFQDLPRASTESLVPSTDSMHEPPHIPTPVCIGHRDAPSFSSPPRQAPEPSLFFQDPPGTSMESLAPSIDSLHGCPLLPPQVCIGHRDAPRASSPPRHPPSDIGLLAPSPPPGSSGSRGSAPPGETRHNLEREEYTMLADLPPPRRLAQRGPEPQAQGSNEGRTRSPGRAEVERLFGQERRKSEAPGAFQTRDEGRSQRPSQAQSQLRRQSSPAP
modifications: N-terminal GFP and C-terminal FLAG fusion on TRIOBP-4, filamentous actin
